Results taken from patent US20110256180A1 (CHILDREN S HOSPITAL AND RESEARCH CENTER AT OAKLAND, published 2011).
Positions count from the first letter of the chain named. Names and notes keep the numbering of the source.

B1: fHbp ID 14 (natural variant, variant group 1, modular group I) (other)
chain: CSSGGGGVAADIGAGLADALTAPLDHKDKSLQSLTLDQSVRKNEKLKLAAQGAEKTYGNGDSLNTGKLKNDKVSRFDFIRQIEVDGQLITLESGEFQVYKQSHSALTALQTEQEQDPEHSGKMVAKRRFKIGDIAGEHTSFDKLPKDVMATYRGTAFGSDDAGGKLTYTIDFAAKQGHGKIEHLKSPELNVELATAYIKPDEKHHAVISGSVLYNQDEKGSYSLGIFGGQAQEVAGSAEVETANGIHHIGLAAKQ
notes: Recombinant
B2: fHbp ID 15 E241K mutant (other)
chain: CSSGGGGSGGGGVAADIGAGLADALTAPLDHKDKGLKSLTLEDSISQNGTLTLSAQGAERTFKAGDKDNSLNTGKLKNDKISRFDFIRQIEVDGQLITLESGEFQVYKQSHSALTALQTEQVQDSEHSGKMVAKRQFRIGDIVGEHTSFGKLPKDVMATYRGTAFGSDDAGGKLTYTIDFAAKQGHGKIEHLKSPELNVDLAAADIKPDEKHHAVISGSVLYNQAEKGSYSLGIFGGQAQEVAGSAEVKTANGIRHIGLAAKQ
B3: fHbp ID 15 S41P mutant (other)
chain: B2 chain with S46P, K249E
notes: also called Pep 15 S41P
B4: fHbp ID 77 D121A mutant (other)
chain: CSSGGGGVAADIGARLADALTAPLDHKDKSLQSLTLDQSVRKNEKLKLAAQGAEKTYGNGDSLNTGKLKNDKVSRFDFIRQIEVDGQLITLESGEFQIYKQDHSAVVALQIEKINNPDKIASLINQRSFLVSGLGGEHTAFNQLPDGKAEYHGKAFSSDDAGGKLTYTIDFAAKQGHGKIEHLKTPEQNVELAAAELKADEKSHAVILGDTRYGSEEKGTYHLALFGDRAQEIAGSATVKIGEKVHEIGIAGKQ
B5: fHbp ID 77 K113A/D121A double mutant (other)
chain: B4 chain with K113A
B6: fHbp ID 77 R41S/D121A double mutant (other)
chain: B4 chain with R41S
B7: fHbp ID 77 K119A mutant (other)
chain: B4 chain with K119A, A121D
B8: fHbp chimera I R41S mutant (other)
chain: CSSGGGGVAADIGAGLADALTAPLDHKDKGLQSLTLDQSVSKNEKLKLAAQGAEKTYGNGDSLNTGKLKNDKVSRFDFIRQIEVDGQLITLESGEFQVYKQSHSALTAFQTEQIQDSEHSGKMVAKRQFRIGDIAGEHTAFNQLPDGKAEYHGKAFSSDDAGGKLTYTIDFAAKQGHGKIEHLKTPEQNVELAAAELKADEKSHAVILGDTRYGSEEKGTYHLALFGDRAQEIAGSATVKIGEKVHEIGIAGKQ
notes: Recombinant; also called R41S mutant of the fHbp chimera I
B9: fHbp ID 28, wild-type (strain M1239, variant group 3, modular group II) (other)
chain: CSSGGGGSGGGGVAADIGTGLADALTAPLDHKDKGLKSLTLEDSIPQNGTLTLSAQGAEKTFKAGDKDNSLNTGKLKNDKISRFDFVQKIEVDGQTITLASGEFQIYKQNHSAVVALQIEKINNPDKTDSLINQRSFLVSGLGGEHTAFNQLPGGKAEYHGKAFSSDDPNGRLHYSIDFTKKQGYGRIEHLKTLEQNVELAAAELKADEKSHAVILGDTRYGSEEKGTYHLALFGDRAQEIAGSATVKIGEKVHEIGIAGKQ
notes: Recombinant; also called Pep28; peptide 28
B10: fHbp ID 28 D201A mutant (other)
chain: B9 chain with D208A
notes: also called D201A (ID 28)
B11: fHbp ID 28 E197A mutant (other)
chain: B9 chain with E204A
B12: fHbp ID 28 K245A mutant (other)
chain: B9 chain with K252A
B13: fHbp ID 28 E218A mutant (other)
chain: B9 chain with E225A
notes: also called E218A (ID 28)
B14: fHbp ID 22 Q38A mutant (other)
chain: CSSGGGGVAADIGAGLADALTAPLDHKDKSLQSLTLDASVRKNEKLKLAAQGAEKTYGNGDSLNTGKLKNDKVSRFDFIRQIEVDGQLITLESGEFQIYKQDHSAVVALQIEKINNPDKIDSLINQRSFLVSGLGGEHTAFNQLPSGKAEYHGKAFSSDDPNGRLHYSIDFTKKQGYGRIEHLKTPEQNVELASAELKADEKSHAVILGDTRYGGEEKGTYHLALFGDRAQEIAGSATVKIREKVHEIGIAGKQ
B15: fHbp ID 22 R41S mutant (other)
chain: B14 chain with A38Q, R41S
notes: also called R41S (ID 22)
B16: fHbp ID 22 Q126A mutant (other)
chain: B14 chain with A38Q, Q126A
B17: fHbp ID 22 R80A mutant (protein)
chain: B14 chain with A38Q, R80A
B18: fHbp ID 22 T220A/H222A double mutant (protein)
chain: B14 chain with A38Q, T220A, H222A
B19: fHbp ID 22 E248A mutant (protein)
chain: B14 chain with A38Q, E247A
B20: fHbp ID 22 E218A mutant (protein)
chain: B14 chain with A38Q, E217A
B21: fHbp ID 22 G236I mutant (protein)
chain: B14 chain with A38Q, G235I
B22: fHbp ID 22 D211A mutant (protein)
chain: B14 chain with A38Q, D210A
B23: fHbp ID 77, wild-type (strain 8047, variant group 2, modular group VI) (other)
chain: B4 chain with A121D
notes: Recombinant; also called ID 77 (VI); wildtype fHbp ID 77
B24: fHbp ID 22, wild-type (variant group 2, modular group III) (other)
chain: B14 chain with A38Q
notes: Recombinant; also called ID 22 (III); WT ID 22
B25: fHbp ID 77 R41S mutant (other)
chain: B4 chain with R41S, A121D
notes: also called R41S (ID 77)
B26: fHbp ID 77 K113A mutant (other)
chain: B4 chain with K113A, A121D
B27: fHbp ID 22 D201A mutant (other)
chain: B14 chain with A38Q, D200A
notes: also called D201A (ID 22)
B28: fHbp ID 22 E202A mutant (other)
chain: B14 chain with A38Q, E201A
B29: fHbp ID 22 A235G mutant (other)
chain: B14 chain with A38Q, A234G

Biological target: T1, human complement factor H (human, UniProt P08603 19-1231)
T1 construct: also called human fH; fH
T1 sequence (P08603 19-1231 limits assumed): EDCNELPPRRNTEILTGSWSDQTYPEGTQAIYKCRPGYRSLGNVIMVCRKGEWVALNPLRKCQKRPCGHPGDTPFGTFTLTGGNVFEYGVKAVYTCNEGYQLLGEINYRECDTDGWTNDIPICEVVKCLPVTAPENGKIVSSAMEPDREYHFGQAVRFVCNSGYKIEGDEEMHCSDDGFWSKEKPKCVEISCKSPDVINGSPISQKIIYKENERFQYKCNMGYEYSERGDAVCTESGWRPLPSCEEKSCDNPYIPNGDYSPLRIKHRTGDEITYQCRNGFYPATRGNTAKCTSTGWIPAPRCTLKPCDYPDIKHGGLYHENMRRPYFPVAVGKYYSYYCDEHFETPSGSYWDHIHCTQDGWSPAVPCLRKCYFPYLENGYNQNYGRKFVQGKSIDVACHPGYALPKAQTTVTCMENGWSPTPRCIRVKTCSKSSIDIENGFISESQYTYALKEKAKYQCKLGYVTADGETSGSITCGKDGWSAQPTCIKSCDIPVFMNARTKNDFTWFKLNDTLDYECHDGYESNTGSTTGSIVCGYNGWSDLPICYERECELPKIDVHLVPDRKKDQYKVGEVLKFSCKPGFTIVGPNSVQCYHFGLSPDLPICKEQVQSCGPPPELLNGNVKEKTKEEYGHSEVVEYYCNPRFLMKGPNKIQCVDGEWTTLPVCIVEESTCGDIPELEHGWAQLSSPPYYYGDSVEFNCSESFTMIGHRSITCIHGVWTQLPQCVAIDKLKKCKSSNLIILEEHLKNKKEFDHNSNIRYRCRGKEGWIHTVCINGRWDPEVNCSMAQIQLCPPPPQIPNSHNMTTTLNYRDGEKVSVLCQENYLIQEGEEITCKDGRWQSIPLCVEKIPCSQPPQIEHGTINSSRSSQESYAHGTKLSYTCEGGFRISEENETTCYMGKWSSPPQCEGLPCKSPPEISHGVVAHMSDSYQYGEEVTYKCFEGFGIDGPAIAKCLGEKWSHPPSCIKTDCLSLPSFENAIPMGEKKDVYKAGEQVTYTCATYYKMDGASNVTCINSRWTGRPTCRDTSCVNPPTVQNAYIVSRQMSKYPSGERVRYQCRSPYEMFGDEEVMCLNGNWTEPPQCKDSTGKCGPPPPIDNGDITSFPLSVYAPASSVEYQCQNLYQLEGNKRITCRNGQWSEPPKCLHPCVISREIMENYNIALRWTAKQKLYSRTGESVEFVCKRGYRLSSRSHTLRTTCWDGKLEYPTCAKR
Experiment: ELISA, fHbp on plate

Does B1 bind?
Result: binds

Which “fold effect on fH binding relative to wildtype fHbp” value does the source give for B2 here?
Its value is under 2 fold.

Does B3 bind?
Result: no binding

For B4, which “fold decrease in fH binding compared with wildtype fHbp ID 77” value is on record?
The value was about 4 fold.

With B5 as the molecule, how does the “fold decreased binding of fH” value read?
The value was about 10 fold.

B6 was tested. Which “fold less binding to fH than wildtype fHbp ID 77” value did it give?
The value was about 10 fold.

How did the “fold increase in fH binding compared to wildtype fHbp ID 77” value turn out when B7 was run?
The value was about 4 fold.

Does B8 bind?
Result: no binding

Does B9 bind?
Result: binds

Does B10 bind?
Result: binds

Does B11 bind?
Result: binds

Does B12 bind?
Result: binds

Does B13 bind?
Result: binds

For B14, which “fold reduction in fH binding vs wildtype fHbp ID 22” value (“fold reduction in fH binding” below) is on record?
Its value is under 4 fold.

B15 was tested. Which “fold reduction in fH binding” value did it give?
Its value is under 4 fold.

How did the “fold reduction in fH binding” value turn out when B16 was run?
The value was under 4 fold.

Biological target: human complement factor H (human) (UniProt P08603)
Sequence (P08603 19-1231 limits assumed): as above
Experiment: ELISA, vs respective wildtype fHbp

With fHbp ID 74 R41S mutant as the molecule, how does the Fold-Decrease in fH binding read?
Its Fold-Decrease in fH binding is over 50 fold.

Which Fold-Decrease in fH binding does the source give for fHbp ID 9 R41S mutant here?
Its Fold-Decrease in fH binding is over 50 fold.

With B17 as the molecule, how does the Fold-Decrease in fH binding read?
Its Fold-Decrease in fH binding is over 50 fold.

How did the Fold-Decrease in fH binding turn out when B18 was run?
Its Fold-Decrease in fH binding is over 50 fold.

Which Fold-Decrease in fH binding does the source give for B19 here?
The Fold-Decrease in fH binding was over 50 fold.

How did the Fold-Decrease in fH binding turn out when B20 was run?
The Fold-Decrease in fH binding was over 50 fold.

How did the Fold-Decrease in fH binding turn out when B21 was run?
The Fold-Decrease in fH binding was over 50 fold.

Which Fold-Decrease in fH binding does the source give for B22 here?
Its Fold-Decrease in fH binding is over 50 fold.

Biological target: T1, human complement factor H
Experiment: ELISA, vs respective wildtype fHbp

For B3, which “Fold-Decrease in fH binding” value is on record?
The value was over 50 fold.

How did the “Fold-Decrease in fH binding” value turn out when B23 was run?
Its value is 0 fold.

For B6, which “Fold-Decrease in fH binding” value is on record?
Its value is over 10 fold.

B24 was tested. Which “Fold-Decrease in fH binding” value did it give?
The value was 0 fold.

Biological target: T1, human complement factor H
Experiment: ELISA, vs respective wildtype fHbp
Remark: another data set of the same source

How did the “Fold-Decrease in fH binding” value turn out when B2 was run?
The value was 0 fold.

For B25, which “Fold-Decrease in fH binding” value is on record?
The value was 0 fold.

B4 was tested. Which “Fold-Decrease in fH binding” value did it give?
Its value is 0 fold.

With B26 as the molecule, how does the “Fold-Decrease in fH binding” value read?
Its value is 0 fold.

Which “Fold-Decrease in fH binding” value does the source give for B7 here?
Its value is 0 fold.

How did the “Fold-Decrease in fH binding” value turn out when B14 was run?
Its value is 0 fold.

With B27 as the molecule, how does the “Fold-Decrease in fH binding” value read?
The value was 0 fold.

With B28 as the molecule, how does the “Fold-Decrease in fH binding” value read?
The value was 0 fold.

With B29 as the molecule, how does the “Fold-Decrease in fH binding” value read?
The value was 0 fold.

For B15, which “Fold-Decrease in fH binding” value is on record?
Its value is 0 fold.

How did the “Fold-Decrease in fH binding” value turn out when B16 was run?
The value was 0 fold.
